Source: paper PMC10524599, “Sensory deficit screen identifies nsf mutation that differentially affects SNARE recycling and quality control” (Cell reports, 2023)

Target: the molecule itself
Assay: SEC; NSF alone, reassembled to the hexamer by a final SEC run with buffer containing 1 mM ATP

B1: I209N NSF (N-ethylmaleimide-sensitive factor, C. griseus ortholog with the I209N mutation) (enzyme)
chain: MAGRSMQAARCPTDELSLSNCAVVSEKDYQSGQHVIVRTSPNHKYIFTLRTHPSVVPGSVAFSLPQRKWAGLSIGQEIEVALYSFDKAKQCIGTMTIEIDFLQKKNIDSNPYDTDKMAAEFIQQFNNQAFSVGQQLVFSFNDKLFGLLVKDIEAMDPSILKGEPASGKRQKIEVGLVVGNSQVAFEKAENSSLNLIGKAKTKENRQSINNPDWNFEKMGIGGLDKEFSDIFRRAFASRVFPPEIVEQMGCKHVKGILLYGPPGCGKTLLARQIGKMLNAREPKVVNGPEILNKYVGESEANIRKLFADAEEEQRRLGANSGLHIIIFDEIDAICKQRGSMAGSTGVHDTVVNQLLSKIDGVEQLNNILVIGMTNRPDLIDEALLRPGRLEVKMEIGLPDEKGRLQILHIHTARMRGHQLLSADVDIKELAVETKNFSGAELEGLVRAAQSTAMNRHIKASTKVEVDMEKAESLQVTRGDFLASLENDIKPAFGTNQEDYASYIMNGIIKWGDPVTRVLDDGELLVQQTKNSDRTPLVSVLLEGPPHSGKTALAAKIAEESNFPFIKICSPDKMIGFSETAKCQAMKKIFDDAYKSQLSCVVVDDIERLLDYVPIGPRFSNLVLQALLVLLKKAPPQGRKLLIIGTTSRKDVLQEMEMLNAFSTTIHVPNIATGEQLLEALELLGNFKDKERTTIAQQVKGKKVWIGIKKLLMLIEMSLQMDPEYRVRKFLALLREEGASPLDFD
notes: legend gives 82.8 kDa monomeric, 496.8 kDa hexameric; also called NSF I209N; I209N NSF protein; source: E. coli BL21(DE3)-RIL, purified (Nickel-NTA, SEC; monomerized without ATP, reassembled by SEC with 1 mM ATP)
- stoichiometry N: 6
